According to patent publication US20120114630:

Target: recombinant staphylokinase SAK-SY162

B1: microplasminogen variant Lys137Met (K137M) (protein)
chain: APSFDCGKPQVEPKKCPGRVVGGCVAHPHSWPWQVSLRTRFGMHFCGGTLISPEWVLTAAHCLEKSPRPSSYKVILGAHQEVNLEPHVQEIEVSRLFLEPTRKDIALLKLSSPAVITDKVIPACLPSPNYVVADRTECFITGWGETQGTFGAGLLMEAQLPVIENKVCNRYEFLNGRVQSTELCAGHLAGGTDSCQGDSGGPLVCFEKDKYILQGVTSWGLGCARPNKPGVYVRVSRFVTWIEGVMRNN
  conversion of inactive microplasminogen into active microplasmin, HPLC profile 10 min after addition of staphylokinase: ~85%
